From patent US20260274955A1 (JANUX THERAPEUTICS, published 2026) come the findings set out here.

Assay [1] has as its target anti-CD28 Fab (SEQ ID NOs: 202, 203). Briefly: phage ELISA, Fab on plate.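 Note: ELISA of crude clonal phage supernatants on the plate, wells preloaded with CD28 antigen or only blocking buffer, captured phage read out via HRP-linked anti-M13 antibody.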 In general terms: An ELISA detects its analyte on a solid surface through an enzyme-linked reagent.
Target sequence in this assay (VH, as listed by the source, chain 1 of 2): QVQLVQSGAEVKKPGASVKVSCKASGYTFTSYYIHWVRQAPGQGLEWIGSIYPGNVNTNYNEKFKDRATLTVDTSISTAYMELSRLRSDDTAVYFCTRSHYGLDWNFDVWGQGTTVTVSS
Target sequence in this assay (VL, as listed by the source, chain 2 of 2): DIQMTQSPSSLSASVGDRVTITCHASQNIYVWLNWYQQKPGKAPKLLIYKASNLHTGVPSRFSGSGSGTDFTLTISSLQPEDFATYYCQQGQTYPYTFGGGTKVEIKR
Protocol: After panning, phage infected bacteria were plated out and colonies picked into 96 well blocks. Clonal phage was then amplified and separated from bacterial cells via centrifugation.
Clonal phage were harvested as crude supernatants and screened via standard ELISAs. […] Prior to the addition of clonal phage, wells were incubated with blocking buffer and CD28 antigen or blocking buffer alone. Without washing or aspirating, clonal phage supernatants were then added to the wells and incubated for a short time. Wells were then washed followed by detection of bound phage using a horse radish conjugated anti-M13 antibody. Clonal phage of interest were then sent for sequence analysis.
For assay [2], the target named is T1, anti-CD28 Fab (SEQ ID NOs: 202, 203).
T1 construct: biotinylated and captured on neutravidin coated plates in the phage ELISA
Kind of assay: phage binding ELISA; Fab wells pre-incubated with CD28 antigen (competitor).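 Note: clonal phage supernatants added to wells preincubated with CD28 antigen in blocking buffer versus blocking buffer alone, washed, bound phage read by HRP-conjugated anti-M13 antibody.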
T1 sequence (VH, as listed by the source, chain 1 of 2): as the sequence (VH, as listed by the source, chain 1 of 2) above
T1 sequence (VL, as listed by the source, chain 2 of 2): as the sequence (VL, as listed by the source, chain 2 of 2) above
Protocol: (§1) Clonal phage were harvested as crude supernatants and screened via standard ELISAs. […] Prior to the addition of clonal phage, wells were incubated with blocking buffer and CD28 antigen or blocking buffer alone. Without washing or aspirating, clonal phage supernatants were then added to the wells and incubated for a short time. Wells were then washed followed by detection of bound phage using a horse radish conjugated anti-M13 antibody.

Assay [3] shares this target. Briefly: phage binding ELISA; biotinylated Fab on neutravidin plate.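 Note: clonal phage supernatants added to Fab wells pretreated with CD28 antigen or with blocking buffer only, bound phage read out via HRP-linked anti-M13 antibody.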
Target sequence in this assay (VH, as listed by the source, chain 1 of 2): as the sequence (VH, as listed by the source, chain 1 of 2) above
Target sequence in this assay (VL, as listed by the source, chain 2 of 2): as the sequence (VL, as listed by the source, chain 2 of 2) above
Protocol: as §1

Consider SCTAGFRIHWPMCF [Phage-1212], for which the “Anti-CD28 Fab signal” value in assay [1] is 1.06.

As for SCAAGSTWAWPACL [Phage-1210], in assay [1], the “Anti-CD28 Fab signal” value worked out at 1.07. Regarding YCEGHLQEYMEKCL [Phage-317], the “Anti-CD28 Fab signal in the presence of CD28” value (“Anti-CD28 Fab signal … of CD28” for short) in assay [2] is 0.1. Moreover, the “Anti-CD28 Fab (SEQ ID NOs: 202, 203) signal” value in assay [3] amounted to 1.89. For YCVGHLQEYMEKCL [Phage-389] the same measures were 0.06 and 1.76.

YCDGHIDEYLQKCL [Phage-322]: the “Anti-CD28 Fab signal … of CD28” value in assay [2] came to 0.06. Also, in assay [3], the “Anti-CD28 Fab (SEQ ID NOs: 202, 203) signal” value was found to be 1.88. For the molecule SCAAVFSFNWPECF [Phage-1216], the “Anti-CD28 Fab signal” value in assay [1] turned out to be 1.01. The same measure, in the same setting: next, TCSAGAHYEWPKCL [Phage-1202]: 1.12. On the same count and under the same terms, the figure for WCSEVFSYPWPACL [Phage-1218] is 0.99. LCAAGFMYEWPLCF [Phage-1143]: the “Anti-CD28 Fab signal” value in assay [1] was determined as 1.4. For the molecule YCEGHSLEYMAKCL [Phage-327], the “Anti-CD28 Fab signal … of CD28” value in assay [2] worked out at 0.08. The “Anti-CD28 Fab (SEQ ID NOs: 202, 203) signal” value in assay [3] came out at 1.88. For YCDGHLAEYMPKCL [Phage-320] the same measures were 0.07 and 1.89. For YCDGHLAEYMVKCL [Phage-375] the same measures were 0.08 and 1.79. For YCDGHSWEYIQKCL [Phage-326] the same measures were 0.07 and 1.88. With YCEGHRPEYMAKCL [Phage-348], the “Anti-CD28 Fab signal … of CD28” value in assay [2] turned out to be 0.07. Also, the “Anti-CD28 Fab (SEQ ID NOs: 202, 203) signal” value in assay [3] is 1.83.

YCEGHMSEYMAKCL [Phage-325]: the “Anti-CD28 Fab signal … of CD28” value in assay [2] came out at 0.11. The “Anti-CD28 Fab (SEQ ID NOs: 202, 203) signal” value in assay [3] amounted to 1.88.

As for YCEGHIPEYMAKCL [Phage-318], the “Anti-CD28 Fab signal … of CD28” value in assay [2] amounted to 0.06. The “Anti-CD28 Fab (SEQ ID NOs: 202, 203) signal” value in assay [3] worked out at 1.89. For YCEGHRSEYMAKCL [Phage-336] the same measures were 0.06 and 1.86. As for TCAAGAHYEWPQCF [Phage-1206], in assay [1], the “Anti-CD28 Fab signal” value came out at 1.08. For YCAGHLPQYIAKCL [Phage-313], the “Anti-CD28 Fab signal … of CD28” value in assay [2] came out at 0.09. Moreover, in assay [3], the “Anti-CD28 Fab (SEQ ID NOs: 202, 203) signal” value worked out at 1.9. The corresponding values for YCEGHVAEYMLKCL [Phage-323] are 0.05 and 1.88.

For YCEGHSQEYMQKCL [Phage-344], the “Anti-CD28 Fab signal … of CD28” value in assay [2] came out at 0.05. Also, the “Anti-CD28 Fab (SEQ ID NOs: 202, 203) signal” value in assay [3] worked out at 1.84. The corresponding values for YCEGHSAEYMQKCL [Phage-443] are 0.29 and 1.7. Turning to SCAAGAAYAWPWCL [Phage-1213], the “Anti-CD28 Fab signal” value in assay [1] amounted to 1.05.

For the molecule SCTAVFSYALSPCF [Phage-1219], the “Anti-CD28 Fab signal” value in assay [1] came to 0.99. Same read-out and setting: the figure for PCAAGAQWSWPMCL [Phage-1209] is 1.07; for LCDQFFHYNWPACL [Phage-1215] it is 1.04. Regarding YCDGHRPEYMEKCL [Phage-315], the “Anti-CD28 Fab signal … of CD28” value in assay [2] was 0.06. In addition, the “Anti-CD28 Fab (SEQ ID NOs: 202, 203) signal” value in assay [3] was 1.9.

Consider QCAAGATYPWPVCL [Phage-1200], for which the “Anti-CD28 Fab signal” value in assay [1] came to 1.13. With YCDGHLPEYMGKCL [Phage-316], the “Anti-CD28 Fab signal … of CD28” value in assay [2] was found to be 0.11. Moreover, the “Anti-CD28 Fab (SEQ ID NOs: 202, 203) signal” value in assay [3] came out at 1.89.

As to YCEGHLPEYMRKCL [Phage-349], the “Anti-CD28 Fab signal … of CD28” value in assay [2] is 0.06. For the same molecule, in assay [3], the “Anti-CD28 Fab (SEQ ID NOs: 202, 203) signal” value was found to be 1.83. As for YCEGHKPEYMQKCL [Phage-447], the “Anti-CD28 Fab signal … of CD28” value in assay [2] came to 0.06. Besides, in assay [3], the “Anti-CD28 Fab (SEQ ID NOs: 202, 203) signal” value amounted to 1.69. The corresponding values for YCDGHLPEYMRKCL [Phage-330] are 0.08 and 1.88. Turning to YCEGHLPAYMQKCL [Phage-377], in assay [2], the “Anti-CD28 Fab signal … of CD28” value amounted to 0.07. Also, in assay [3], the “Anti-CD28 Fab (SEQ ID NOs: 202, 203) signal” value amounted to 1.78.

YCEGHSPEYMRKCL [Phage-385]: the “Anti-CD28 Fab signal … of CD28” value in assay [2] is 0.08. Moreover, in assay [3], the “Anti-CD28 Fab (SEQ ID NOs: 202, 203) signal” value is 1.77. Turning to YCEGHLPEYMMKCL [Phage-329], the “Anti-CD28 Fab signal … of CD28” value in assay [2] is 0.27. Also, the “Anti-CD28 Fab (SEQ ID NOs: 202, 203) signal” value in assay [3] turned out to be 1.88. Turning to YCEGHSPEYMWKCL [Phage-321], the “Anti-CD28 Fab signal … of CD28” value in assay [2] came to 0.09. In assay [3], the “Anti-CD28 Fab (SEQ ID NOs: 202, 203) signal” value stood at 1.89.

Take YCEGHSYEYMWKCL [Phage-328]: in assay [2], the “Anti-CD28 Fab signal … of CD28” value turned out to be 0.08. Moreover, the “Anti-CD28 Fab (SEQ ID NOs: 202, 203) signal” value in assay [3] stood at 1.88.

Consider YCDGHLKEYMAKCL [Phage-314], for which, in assay [2], the “Anti-CD28 Fab signal … of CD28” value turned out to be 0.07. In assay [3], the “Anti-CD28 Fab (SEQ ID NOs: 202, 203) signal” value amounted to 1.9. Take YCDGHLSEYMFKCL [Phage-371]: the “Anti-CD28 Fab signal … of CD28” value in assay [2] stood at 0.1. Moreover, the “Anti-CD28 Fab (SEQ ID NOs: 202, 203) signal” value in assay [3] amounted to 1.79. For YCDGHAIEYMAKCL [Phage-446] the same measures were 0.08 and 1.69. Regarding YCEGHLSEYMSKCL [Phage-324], the “Anti-CD28 Fab signal … of CD28” value in assay [2] was determined as 0.09. Also, the “Anti-CD28 Fab (SEQ ID NOs: 202, 203) signal” value in assay [3] turned out to be 1.88. Take YCDGHSPEYMPKCL [Phage-319]: in assay [2], the “Anti-CD28 Fab signal … of CD28” value stood at 0.08. Moreover, the “Anti-CD28 Fab (SEQ ID NOs: 202, 203) signal” value in assay [3] stood at 1.89. Take TCSAGASYSWPYCM [Phage-1217]: the “Anti-CD28 Fab signal” value in assay [1] stood at 1. Same read-out and setting: the figure for MCTAGFSFNWPECL [Phage-1214] is 1.05. As to TCAAGATYNWPWCF [Phage-1207], the “Anti-CD28 Fab signal” value in assay [1] was determined as 1.07. Same read-out and setting: next, SCAAGFHYEWPQCF [Phage-1211]: 1.06. Consider YCEGHSPLYMSKCL [Phage-331], for which, in assay [2], the “Anti-CD28 Fab signal … of CD28” value was 0.09. In addition, in assay [3], the “Anti-CD28 Fab (SEQ ID NOs: 202, 203) signal” value amounted to 1.87. On to YCAGHAPQYMEKCL [Phage-312], for which the “Anti-CD28 Fab signal … of CD28” value in assay [2] was 0.08. In addition, in assay [3], the “Anti-CD28 Fab (SEQ ID NOs: 202, 203) signal” value was 1.9. For TCAAGATWTWPTCM [Phage-1208], the “Anti-CD28 Fab signal” value in assay [1] is 1.07. Still for that read-out and setting: the figure for TCAAGANYAWPVCL [Phage-1205] is 1.09.
